Experimental data reported in article PMC7948448.

Target: Bmh1 (UniProt P29311)
Assay: Strep-Bmh1 pull-down, stained SDS-PAGE
Settings: reference: unmodified Hst2

## Hst2 (from UniProt P53686) Hst2 S320ph
Sites S320
  binding against the reference: gained

## Hst2 (from UniProt P53686) Hst2 S324ph
Sites S324
  binding against the reference: gained
